# Data from paper doi:10.1101/2025.11.11.687647v1.
# B1: MtPC (Mycobacterium tuberculosis pyruvate carboxylase) (Mycobacterium tuberculosis H37Rv) (protein)
# chain: MFSKVLVANRGEIAIRAFRAAYELGVGTVAVYPYEDRNSQHRLKADESYQIGDIGHPVHAYLSVDEIVATARRAGADAIYPGYGFLSENPDLAAACAAAGISFVGPSAEVLELAGNKSRAIAAAREAGLPVLMSSAPSASVDELLSVAAGMPFPLFVKAVAGGGGRGMRRVGDIAALPEAIEAASREAESAFGDPTVYLEQAVINPRHIEVQILADNLGDVIHLYERDCSVQRRHQKVIELAPAPHLDAELRYKMCVDAVAFARHIGYSCAGTVEFLLDERGEYVFIEMNPRVQVEHTVTEEITDVDLVASQLRIAAGETLEQLGLRQEDIAPHGAALQCRITTEDPANGFRPDTGRISALRTAGGAGVRLDGSTNLGAEISPYFDSMLVKLTCRGRDLPTAVSRARRAIAEFRIRGVSTNIPFLQAVLDDPDFRAGRVTTSFIDERPQLLTARASADRGTKILNFLADVTVNNPYGSRPSTIYPDDKLPDLDLRAAPPAGSKQRLVKLGPEGFARWLRESAAVGVTDTTFRDAHQSLLATRVRTSGLSRVAPYLARTMPQLLSVECWGGATYDVALRFLKEDPWERLATLRAAMPNICLQMLLRGRNTVGYTPYPEIVTSAFVQEATATGIDIFRIFDALNNIESMRPAIDAVRETGSAIAEVAMCYTGDLTDPGEQLYTLDYYLKLAEQIVDAGAHVLAIKDMAGLLRPPAAQRLVSALRSRFDLPVHLHTHDTPGGQLASYVAAWHAGADAVDGAAAPLAGTTSQPALSSIVAAAAHTEYDTGLSLSAVCALEPYWEALRKVYAPFESGLPGPTGRVYHHEIPGGQLSNLRQQAIALGLGDRFEEIEEAYAGADRVLGRLVKVTPTSKVVGDLALALVGAGVSADEFASDPARFGIPESVLGFLRGELGDPPGGWPEPLRTAALAGRGAARPTAQLAADDEIALSSVGAKRQATLNRLLFPSPTKEFNEHREAYGDTSQLSANQFFYGLRQGEEHRVKLERGVELLIGLEAISEPDERGMRTVMCILNGQLRPVLVRDRSIASAVPAAEKADRGNPGHIAAPFAGVVTVGVCVGERVGAGQTIATIEAMKMEAPITAPVAGTVERVAVSDTAQVEGGDLLVVVS
# Substrate: CC(=O)C(=O)O
# Assay: purified protein
# Settings: pH 8.0; 25.0 °C
protein,measurement,value
B1,Km,2310 µM
